In publication PMC6347194, “Protein refolding based on high hydrostatic pressure and alkaline pH: Application on a recombinant dengue virus NS1 protein” (PLoS ONE, 2019):

Key:
[1] = target: the molecule itself; assay: SEC
[2] = target: the molecule itself; assay: SEC; Superdex 200 10/300, elution in 50 mM CAPS pH 11.0; supernatant of NS1-IBs subjected to 2.4 kbar/0.4 kbar at pH 11.0, before dialysis

B1: dengue virus (DENV) non-structural protein 1 (NS1), recombinant, refolded from inclusion bodies (natural protein)
chain: DSGCVVSWKNKELKCGSGIFITDNVHTWTEQYKFQPESPSKLASAIQKAHEEGICGIRSVTRLENLMWKQITPELNHILSENEVKLTIMTGDIKGIMQAGKRSLQPQPTELKYSWKTWGKAKMLSTESHNQTFLIDGPETAECPNTNRAWNSLEVEDYGFGVFTTNIWLKLREKQDVFCDSKLMSAAIKDNRAVHADMGYWIESALNDTWKIEKASFIEVKSCHWPKSHTLWSNGVLESEMIIPKNFAGPVSQHNYRPGYHTQTAGPWHLGKLEMDFDFCEGTTVVVTEDCGNRGPSLRTTTASGKLITEWCCRSCTLPPLRYRGEDGCWYGMEIRPLKEKEENLVNSLVTA
notes: also called DENV NS1
[1]
  stoichiometry N: 3
[2]
  stoichiometry N: 2
